Target: ALYREF-ΔRRM (human, UniProt Q86V81 1-257, del108-179)
Test: EMSA; 35 mM Tris-HCl pH 7.5, 1 mM DTT, 100 ug/ml BSA, 1 mM MgCl2, 100 mM KCl, 10 min at 30 C; 5 nM nucleic acid; gel at 4 C
Conditions: protein: recombinant; tags: His6; label: 32P; three-strand 5' RNA flap; RNA and DNA2 share the complement on DNA1

B1: 5' RNA-DNA flap (R-Flap, migratable R-loop mimic) (mixed)
DNA 1: ACGCTGCCGAATTCTACCAGTGCCTTGCTAGGACATCTTTGCCCACCTGGTGGTGGGACC
DNA 2: GGTCCCACCACCAGGTGGGCAAAGATGTCCCAGCAAGGCACTGGTAGAATTCGGCAGCGT
RNA: GGUCCCACCACCAGGUGGGCAAAGAUGUCC
  binding result: binds

From publication PMC11665464, “The molecular chaperone ALYREF promotes R-loop resolution and maintains genome stability”
